The values that follow come from FireProtDB (doi:10.1074/jbc.m110728200).

B1: Lysozyme C, P61626 (parent)
chain: MKALIVLGLVLLSVTVQGKVFERCELARTLKRLGMDGYRGISLANWMCLAKWESGYNTRATNYNAGDRSTDYGIFQINSRYWCNDGKTPGAVNACHLSCSALLQDNIADAVACAKRVVRDPQGIRAWVAWRNRCQNRDVRQYVQGCGV

In one data set the parent is B1. To be noted: Homo sapiens; pH 2.66; Thermal; DSC; Gly-HCl 0.05 M; structure 1LZ1; whole UniProt chain shown.
For the variant MKALIVLGLVLLSVTVQGKDFERCELARTLKRLGMDGYRGISLANWMCLAKWESGYNTRATNYNAGDRSTDYGIFQINSRYWCNDGKTPGAVNACHLSCSALLQDNIADAVACAKRVVRDPQGIRAWVAWRNRCQNRDVRQYVQGCGV, the Tm is 59.6 °C, the “unfolding enthalpy (calorimetric)” value is 103 kcal/mol and the “unfolding enthalpy (van 't Hoff)” value came out at 99.9 kcal/mol.

Consider MKALIVLGLVLLSVTVQGKVFERCELARTLKRLGMDGYRGISLANWMCLAKWESGYNTRATNYNAGDRSTDYGIFQINSRYWCNDGKTPGAVNACHLSCSALLQDNIADAVACAKRVVRDPQGIRAWYAWRNRCQNRDVRQYVQGCGV, for which the Tm was 63.3 °C, the “unfolding enthalpy (calorimetric)” value was 106 kcal/mol and the “unfolding enthalpy (van 't Hoff)” value was 105 kcal/mol.

Still in this data set, the particulars now being: Homo sapiens; pH 2.7; 64.9 °C; Thermal; DSC; Gly-HCl 0.05 M; structure 1LZ1; whole UniProt chain shown.
Take MKALIVLGLVLLSVTVQGKDFERCELARTLKRLGMDGYRGISLANWMCLAKWESGYNTRATNYNAGDRSTDYGIFQINSRYWCNDGKTPGAVNACHLSCSALLQDNIADAVACAKRVVRDPQGIRAWVAWRNRCQNRDVRQYVQGCGV: the “ddG of mutation (higher = less stable)” value worked out at 1.43 kcal/mol, the “heat capacity change of unfolding” value worked out at 1.58 kcal/mol/K and the “unfolding enthalpy (calorimetric)” value amounted to 111 kcal/mol.

Consider MKALIVLGLVLLSVTVQGKYFERCELARTLKRLGMDGYRGISLANWMCLAKWESGYNTRATNYNAGDRSTDYGIFQINSRYWCNDGKTPGAVNACHLSCSALLQDNIADAVACAKRVVRDPQGIRAWVAWRNRCQNRDVRQYVQGCGV, for which the “heat capacity change of unfolding” value came out at 1.82 kcal/mol/K and the “unfolding enthalpy (calorimetric)” value was determined as 106 kcal/mol.

MKALIVLGLVLLSVTVQGKVFERCELARTLKRLGMDGYRGISLANWMCLAKWESGYNTRATNYNAGDRSTDYGIFQINSRYWCNDGKTPGAVNACHLSCSALLQDNIADAVACAKRVVRDPQGIRAWYAWRNRCQNRDVRQYVQGCGV: the “ddG of mutation (higher = less stable)” value amounted to 0.14 kcal/mol and the “unfolding enthalpy (calorimetric)” value is 108 kcal/mol.

Consider MKALIVLGLVLLSVTVQGKVFERCELARTLKRLGMDGYRGISLANWMCLAKWESGYNTRATNYNAGDRSTDYGIFQINSRYWCNDGKTPGAVNACHLSCSALLQDNIADAVACAKRVVRDPQGIRAWRAWRNRCQNRDVRQYVQGCGV, for which the “ddG of mutation (higher = less stable)” value is -0.88 kcal/mol and the “unfolding enthalpy (calorimetric)” value stood at 101 kcal/mol.

The same data set, now with this note: Homo sapiens; pH 2.7; Thermal; DSC; Gly-HCl 0.05 M; structure 1LZ1; whole UniProt chain shown.
MKALIVLGLVLLSVTVQGKDFERCELARTLKRLGMDGYRGISLANWMCLAKWESGYNTRATNYNAGDRSTDYGIFQINSRYWCNDGKTPGAVNACHLSCSALLQDNIADAVACAKRVVRDPQGIRAWVAWRNRCQNRDVRQYVQGCGV: the midpoint of thermal melting (Tm) stood at 60.4 °C and the “change of melting temperature, mutant - wild type (higher = more stable)” value (shortened to “change of melting temperature, mutant”) is -4.5 °C.

Consider MKALIVLGLVLLSVTVQGKVFERCELARTLKRLGMDGYRGISLANWMCLAKWESGYNTRATNYNAGDRSTDYGIFQINSRYWCNDGKTPGAVNACHLSCSALLQDNIADAVACAKRVVRDPQGIRAWYAWRNRCQNRDVRQYVQGCGV, for which the Tm turned out to be 64.4 °C and the “change of melting temperature, mutant” value was -0.5 °C.

For MKALIVLGLVLLSVTVQGKVFERCELARTLKRLGMDGYRGISLANWMCLAKWESGYNTRATNYNAGDRSTDYGIFQINSRYWCNDGKTPGAVNACHLSCSALLQDNIADAVACAKRVVRDPQGIRAWRAWRNRCQNRDVRQYVQGCGV, the Tm worked out at 67.8 °C and the “change of melting temperature, mutant” value was found to be 2.9 °C.

The data set is the same for the next values; noted with them: Homo sapiens; pH 2.96; Thermal; DSC; Gly-HCl 0.05 M; structure 1LZ1; whole UniProt chain shown.
In the case of MKALIVLGLVLLSVTVQGKDFERCELARTLKRLGMDGYRGISLANWMCLAKWESGYNTRATNYNAGDRSTDYGIFQINSRYWCNDGKTPGAVNACHLSCSALLQDNIADAVACAKRVVRDPQGIRAWVAWRNRCQNRDVRQYVQGCGV, the Tm stood at 64.9 °C, the “unfolding enthalpy (calorimetric)” value is 112 kcal/mol and the “unfolding enthalpy (van 't Hoff)” value was 108 kcal/mol.

The data set is the same for the next values; noted with them: Homo sapiens; pH 3.01; Thermal; DSC; Gly-HCl 0.05 M; structure 1LZ1; whole UniProt chain shown.
On to MKALIVLGLVLLSVTVQGKDFERCELARTLKRLGMDGYRGISLANWMCLAKWESGYNTRATNYNAGDRSTDYGIFQINSRYWCNDGKTPGAVNACHLSCSALLQDNIADAVACAKRVVRDPQGIRAWVAWRNRCQNRDVRQYVQGCGV, for which the midpoint of thermal melting (Tm) amounted to 65.7 °C, the “unfolding enthalpy (calorimetric)” value was determined as 113 kcal/mol and the “unfolding enthalpy (van 't Hoff)” value was 109 kcal/mol.

As for MKALIVLGLVLLSVTVQGKVFERCELARTLKRLGMDGYRGISLANWMCLAKWESGYNTRATNYNAGDRSTDYGIFQINSRYWCNDGKTPGAVNACHLSCSALLQDNIADAVACAKRVVRDPQGIRAWRAWRNRCQNRDVRQYVQGCGV, the midpoint of thermal melting (Tm) worked out at 72.8 °C, the “unfolding enthalpy (calorimetric)” value turned out to be 114 kcal/mol and the “unfolding enthalpy (van 't Hoff)” value amounted to 116 kcal/mol.

The data set is the same for the next values; noted with them: Homo sapiens; pH 3.14; Thermal; DSC; Gly-HCl 0.05 M; structure 1LZ1; whole UniProt chain shown.
MKALIVLGLVLLSVTVQGKDFERCELARTLKRLGMDGYRGISLANWMCLAKWESGYNTRATNYNAGDRSTDYGIFQINSRYWCNDGKTPGAVNACHLSCSALLQDNIADAVACAKRVVRDPQGIRAWVAWRNRCQNRDVRQYVQGCGV: the Tm came to 68 °C, the “unfolding enthalpy (calorimetric)” value turned out to be 116 kcal/mol and the “unfolding enthalpy (van 't Hoff)” value is 113 kcal/mol.

Staying with this data set, now noted: Homo sapiens; pH 3.3; Thermal; DSC; Gly-HCl 0.05 M; structure 1LZ1; whole UniProt chain shown.
In the case of MKALIVLGLVLLSVTVQGKDFERCELARTLKRLGMDGYRGISLANWMCLAKWESGYNTRATNYNAGDRSTDYGIFQINSRYWCNDGKTPGAVNACHLSCSALLQDNIADAVACAKRVVRDPQGIRAWVAWRNRCQNRDVRQYVQGCGV, the Tm turned out to be 70.2 °C, the “unfolding enthalpy (calorimetric)” value is 120 kcal/mol and the “unfolding enthalpy (van 't Hoff)” value stood at 118 kcal/mol.

Still in this data set, the particulars now being: Homo sapiens; pH 2.83; Thermal; DSC; Gly-HCl 0.05 M; structure 1LZ1; whole UniProt chain shown.
As to MKALIVLGLVLLSVTVQGKYFERCELARTLKRLGMDGYRGISLANWMCLAKWESGYNTRATNYNAGDRSTDYGIFQINSRYWCNDGKTPGAVNACHLSCSALLQDNIADAVACAKRVVRDPQGIRAWVAWRNRCQNRDVRQYVQGCGV, the midpoint of thermal melting (Tm) stood at 65.9 °C, the “unfolding enthalpy (calorimetric)” value was found to be 108 kcal/mol and the “unfolding enthalpy (van 't Hoff)” value was 110 kcal/mol.

Still in this data set, the particulars now being: Homo sapiens; pH 2.91; Thermal; DSC; Gly-HCl 0.05 M; structure 1LZ1; whole UniProt chain shown.
MKALIVLGLVLLSVTVQGKYFERCELARTLKRLGMDGYRGISLANWMCLAKWESGYNTRATNYNAGDRSTDYGIFQINSRYWCNDGKTPGAVNACHLSCSALLQDNIADAVACAKRVVRDPQGIRAWVAWRNRCQNRDVRQYVQGCGV: the Tm is 67.4 °C, the “unfolding enthalpy (calorimetric)” value was determined as 111 kcal/mol and the “unfolding enthalpy (van 't Hoff)” value stood at 112 kcal/mol.

The data set is the same for the next values; noted with them: Homo sapiens; pH 3.2; Thermal; DSC; Gly-HCl 0.05 M; structure 1LZ1; whole UniProt chain shown.
Regarding MKALIVLGLVLLSVTVQGKYFERCELARTLKRLGMDGYRGISLANWMCLAKWESGYNTRATNYNAGDRSTDYGIFQINSRYWCNDGKTPGAVNACHLSCSALLQDNIADAVACAKRVVRDPQGIRAWVAWRNRCQNRDVRQYVQGCGV, the midpoint of thermal melting (Tm) was 72.3 °C, the “unfolding enthalpy (calorimetric)” value amounted to 119 kcal/mol and the “unfolding enthalpy (van 't Hoff)” value is 120 kcal/mol.

The same data set, now with this note: Homo sapiens; pH 3.21; Thermal; DSC; Gly-HCl 0.05 M; structure 1LZ1; whole UniProt chain shown.
MKALIVLGLVLLSVTVQGKYFERCELARTLKRLGMDGYRGISLANWMCLAKWESGYNTRATNYNAGDRSTDYGIFQINSRYWCNDGKTPGAVNACHLSCSALLQDNIADAVACAKRVVRDPQGIRAWVAWRNRCQNRDVRQYVQGCGV: the midpoint of thermal melting (Tm) was 72 °C, the “unfolding enthalpy (calorimetric)” value turned out to be 120 kcal/mol and the “unfolding enthalpy (van 't Hoff)” value was determined as 120 kcal/mol.

The data set is the same for the next values; noted with them: Homo sapiens; pH 3.24; Thermal; DSC; Gly-HCl 0.05 M; structure 1LZ1; whole UniProt chain shown.
MKALIVLGLVLLSVTVQGKYFERCELARTLKRLGMDGYRGISLANWMCLAKWESGYNTRATNYNAGDRSTDYGIFQINSRYWCNDGKTPGAVNACHLSCSALLQDNIADAVACAKRVVRDPQGIRAWVAWRNRCQNRDVRQYVQGCGV: the Tm was 73 °C, the “unfolding enthalpy (calorimetric)” value was 121 kcal/mol and the “unfolding enthalpy (van 't Hoff)” value amounted to 122 kcal/mol.

The data set is the same for the next values; noted with them: Homo sapiens; pH 2.98; Thermal; DSC; Gly-HCl 0.05 M; structure 1LZ1; whole UniProt chain shown.
For the variant MKALIVLGLVLLSVTVQGKVFERCELARTLKRLGMDGYRGISLANWMCLAKWESGYNTRATNYNAGDRSTDYGIFQINSRYWCNDGKTPGAVNACHLSCSALLQDNIADAVACAKRVVRDPQGIRAWYAWRNRCQNRDVRQYVQGCGV, the Tm was 69.3 °C, the “unfolding enthalpy (calorimetric)” value is 114 kcal/mol and the “unfolding enthalpy (van 't Hoff)” value turned out to be 114 kcal/mol.

The same data set, now with this note: Homo sapiens; pH 3.18; Thermal; DSC; Gly-HCl 0.05 M; structure 1LZ1; whole UniProt chain shown.
Take MKALIVLGLVLLSVTVQGKVFERCELARTLKRLGMDGYRGISLANWMCLAKWESGYNTRATNYNAGDRSTDYGIFQINSRYWCNDGKTPGAVNACHLSCSALLQDNIADAVACAKRVVRDPQGIRAWYAWRNRCQNRDVRQYVQGCGV: the Tm came out at 72.2 °C, the “unfolding enthalpy (calorimetric)” value is 120 kcal/mol and the “unfolding enthalpy (van 't Hoff)” value came out at 121 kcal/mol.

The data set is the same for the next values; noted with them: Homo sapiens; pH 3.38; Thermal; DSC; Gly-HCl 0.05 M; structure 1LZ1; whole UniProt chain shown.
In the case of MKALIVLGLVLLSVTVQGKVFERCELARTLKRLGMDGYRGISLANWMCLAKWESGYNTRATNYNAGDRSTDYGIFQINSRYWCNDGKTPGAVNACHLSCSALLQDNIADAVACAKRVVRDPQGIRAWYAWRNRCQNRDVRQYVQGCGV, the Tm amounted to 75.4 °C, the “unfolding enthalpy (calorimetric)” value worked out at 125 kcal/mol and the “unfolding enthalpy (van 't Hoff)” value was 125 kcal/mol.

Staying with this data set, now noted: Homo sapiens; pH 2.8; Thermal; DSC; Gly-HCl 0.05 M; structure 1LZ1; whole UniProt chain shown.
For MKALIVLGLVLLSVTVQGKVFERCELARTLKRLGMDGYRGISLANWMCLAKWESGYNTRATNYNAGDRSTDYGIFQINSRYWCNDGKTPGAVNACHLSCSALLQDNIADAVACAKRVVRDPQGIRAWRAWRNRCQNRDVRQYVQGCGV, the Tm came out at 69.3 °C, the “unfolding enthalpy (calorimetric)” value was found to be 108 kcal/mol and the “unfolding enthalpy (van 't Hoff)” value was found to be 110 kcal/mol.

Staying with this data set, now noted: Homo sapiens; pH 3.15; Thermal; DSC; Gly-HCl 0.05 M; structure 1LZ1; whole UniProt chain shown.
For MKALIVLGLVLLSVTVQGKVFERCELARTLKRLGMDGYRGISLANWMCLAKWESGYNTRATNYNAGDRSTDYGIFQINSRYWCNDGKTPGAVNACHLSCSALLQDNIADAVACAKRVVRDPQGIRAWRAWRNRCQNRDVRQYVQGCGV, the Tm is 75 °C, the “unfolding enthalpy (calorimetric)” value turned out to be 117 kcal/mol and the “unfolding enthalpy (van 't Hoff)” value came to 120 kcal/mol.
